{"source": "patent US20020193329A1", "about": "(published 2002)", "binders": {"B1": {"name": "TCR of the 17D5 T cell clone (TCR, V domains shown)", "Valpha": "AQSVAQPEDQVNVAEGNPLTVKCTYSVSGNPYLFWYVQYPNRGLQFLLKYITGDNLVKGSYGFEAEFNKSQTSFHLKKPSALVSDSALYFCAVRPNSGYSTLTFGKGTMLLVSP", "Vbeta": "EAQVTQNPRYLITVTGKKLTVTCSQNMNHEYMSWYRQDPGLGLRQIYYSMNVEVTDKGDVPEGYKVSRKEKRNFPLILESPSPNQTSLYFCASSLDWGGLAGGLGTDTQYFGPGTRLTVL"}}, "biological_target": "T1, Her-2/neu peptide on HLA-B*44:02 (human)", "T1 peptide": "EEYLVPQQGF", "experiment": "cytokine release", "description": "This example describes the charaterization of the epitope recognized by one of the T cell clones described above, 17D5. This clone recognized APC expressing the ICD or full-length Her-2/neu protein. The HLA-restriction element for the clone was determined to be HLA-B4402 by using a panel of allogenic cell lines matched at various HLA alleles with the T cell clone as APC in gamma interferon Elispot assays. This was confirmed by transduction of HLA-B44-negative, Her-2/neu-positive APC with a B4402-recombinant retrovirus to confer recognition. The region of the ICD recognized by the clone was narrowed by using recombinant retroviruses expressing a series of five fragments of the ICD to transduce B44+APC. […] Predicted B44-binding 9 mer and 10 mer peptides from within this fragment were chosen and synthesized. Of the 13 peptides synthesized, one was recognized by the clone and determined to be the epitope. […] The sequence of this naturally processed Her-2/neu epitope is: […] (SEQ ID NO: 3), position 1021-1030 in the Her-2/neu protein sequence.", "data": [{"binder": "B1", "values": [{"measurement": "binding result", "result": "recognises"}]}]}
